Data on 15 molecules can be found in US20240425606A1, “ANTI-IL-11RA ANTIBODIES” (Lassen Therapeutics 1, Inc., priority 2021, published 2024).

The chains are these.
T1: hIL-11Rα (Homo sapiens, UniProt Q14626)
T1 sequence (Q14626 23-422): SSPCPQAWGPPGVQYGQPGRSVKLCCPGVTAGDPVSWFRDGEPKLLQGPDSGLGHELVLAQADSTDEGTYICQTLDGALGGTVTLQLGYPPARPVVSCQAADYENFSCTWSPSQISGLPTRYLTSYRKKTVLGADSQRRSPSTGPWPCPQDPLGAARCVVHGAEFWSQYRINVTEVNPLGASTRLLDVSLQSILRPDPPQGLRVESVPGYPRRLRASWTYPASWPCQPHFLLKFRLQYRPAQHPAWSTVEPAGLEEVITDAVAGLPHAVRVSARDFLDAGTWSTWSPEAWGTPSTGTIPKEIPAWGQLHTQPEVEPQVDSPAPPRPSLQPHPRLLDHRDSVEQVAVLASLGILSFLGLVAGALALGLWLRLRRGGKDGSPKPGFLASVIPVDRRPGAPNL

T2: hIL-1 IR (Homo sapiens, UniProt Q14626)
T2 sequence (Q14626 23-422): T1 sequence (Q14626 23-422)

T3: human IL-11Rα (human, UniProt Q14626 23-363, limits assumed)
T3 construct: Protein coated on ELISA plates and used in solution for BLI; also called hIL-11Rα; hIL-11R
T3 sequence: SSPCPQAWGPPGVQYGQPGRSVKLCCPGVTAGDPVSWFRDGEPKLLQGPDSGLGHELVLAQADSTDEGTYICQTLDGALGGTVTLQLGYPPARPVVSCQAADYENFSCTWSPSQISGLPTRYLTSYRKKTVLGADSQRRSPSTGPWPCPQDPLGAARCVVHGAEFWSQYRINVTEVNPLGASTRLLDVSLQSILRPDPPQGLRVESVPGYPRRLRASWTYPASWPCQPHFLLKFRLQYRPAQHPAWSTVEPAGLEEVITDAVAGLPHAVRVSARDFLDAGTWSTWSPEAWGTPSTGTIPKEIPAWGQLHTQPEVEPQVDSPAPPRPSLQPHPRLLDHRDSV

B1: mAb7: anti-IL-11Rα antibody; VH SEQ ID NO: 205, VL SEQ ID NO: 206; human IgG4 (S228P), kappa light chain (antibody, V domains shown)
VH: EVQLLESGGGLVQPGGSLRLSCAASGFTFSNYAMSWVRQAPGKGLEWVSSIVPYGDLTQYADSVKGRFTISRDNSKNTLYLQMNSLRAEDTAVYYCAKGPGWGSFDLWGRGTLVTVSS
VL: DIQMTQSPSSLSASVGDRVTITCQASQDINNYLNWYQQKPGKAPKLLIYDASNLQTGVPSRFSGSGSGTDFTFTISSLQPEDIATYYCQQHESQSPTFGPGTKVDIK
modifications: human IgG4 S228P and kappa constant regions; mAb7 VH Chain; mAb7 VL Chain
notes: anti-IL-11Rα antibody; human IgG4 (S228P), kappa light chain
B2: mAb6: anti-IL-11Rα antibody; VH SEQ ID NO: 203, VL SEQ ID NO: 204; human IgG4 (S228P), kappa light chain (antibody, V domains shown)
VH: B1 VH with N31W, A33S, S35T
VL: B1 VL with S93F
modifications: human IgG4 S228P and kappa constant regions; mAb6 VH Chain; mAb6 VL Chain
notes: as for B1
B3: mAb8: anti-IL-11Rα antibody; VH SEQ ID NO: 207, VL SEQ ID NO: 208; human IgG4 (S228P), kappa light chain (antibody, V domains shown)
VH: B1 VH with N31S
VL: B1 VL
modifications: human IgG4 and kappa constant regions; mAb8 VH Chain; mAb8 VL Chain
notes: as for B1
B4: mAb28: anti-IL-11Rα antibody; VH SEQ ID NO: 247, VL SEQ ID NO: 248; heavy chain Kabat position 31 variant of mAb5 (antibody, V domains shown)
VH: B1 VH with N31R, A33S, S35T
VL: B1 VL
modifications: mAb28 VH Chain; mAb28 VL Chain
notes: anti-IL-11Rα antibody; heavy chain Kabat position 31 variant of mAb5
B5: mAb16: anti-IL-11Rα antibody; VH SEQ ID NO: 223, VL SEQ ID NO: 224; heavy chain Kabat position 31 variant of mAb5 (antibody, V domains shown)
VH: B1 VH with N31A, A33S, S35T
VL: B1 VL
modifications: mAb16 VH Chain; mAb16 VL Chain
notes: as for B4
B6: mAb27: anti-IL-11Rα antibody; VH SEQ ID NO: 245, VL SEQ ID NO: 246; heavy chain Kabat position 31 variant of mAb5 (antibody, V domains shown)
VH: B1 VH with N31P, A33S, S35T
VL: B1 VL
modifications: mAb27 VH Chain; mAb27 VL Chain
notes: as for B4
B7: mAb32: anti-IL-11Rα antibody; VH SEQ ID NO: 255, VL SEQ ID NO: 256; heavy chain Kabat position 31 variant of mAb5 (antibody, V domains shown)
VH: B1 VH with N31Y, A33S, S35T
VL: B1 VL
modifications: mAb32 VH Chain; mAb32 VL Chain
notes: as for B4
B8: mAb17: anti-IL-11Rα antibody; VH SEQ ID NO: 225, VL SEQ ID NO: 226; heavy chain Kabat position 31 variant of mAb5 (antibody, V domains shown)
VH: B1 VH with N31D, A33S, S35T
VL: B1 VL
modifications: mAb17 VH Chain; mAb17 VL Chain
notes: as for B4
B9: mAb19: anti-IL-11Rα antibody; VH SEQ ID NO: 229, VL SEQ ID NO: 230; heavy chain Kabat position 31 variant of mAb5 (antibody, V domains shown)
VH: B1 VH with N31F, A33S, S35T
VL: B1 VL
modifications: mAb19 VH Chain; mAb19 VL Chain
notes: as for B4
B10: mAb18: anti-IL-11Rα antibody; VH SEQ ID NO: 227, VL SEQ ID NO: 228; heavy chain Kabat position 31 variant of mAb5 (antibody, V domains shown)
VH: B1 VH with N31E, A33S, S35T
VL: B1 VL
modifications: mAb18 VH Chain; mAb18 VL Chain
notes: as for B4
B11: mAb30: anti-IL-11Rα antibody; VH SEQ ID NO: 251, VL SEQ ID NO: 252; heavy chain Kabat position 31 variant of mAb5 (antibody, V domains shown)
VH: B1 VH with N31T, A33S, S35T
VL: B1 VL
modifications: mAb30 VH Chain; mAb30 VL Chain
notes: as for B4
B12: mAb21 (antibody, human IgG4, V domains shown)
VH: B1 VH with N31H, A33S, S35T
VL: B1 VL
notes: Expressed as human IgG4 (S228P EU)
B13: mAb23 (antibody, human IgG4, V domains shown)
VH: B1 VH with N31K, A33S, S35T
VL: B1 VL
notes: as for B12
B14: mAb31 (antibody, human IgG4, V domains shown)
VH: B1 VH with N31V, A33S, S35T
VL: B1 VL
notes: as for B12
B15: mAb29 (antibody, human IgG4, V domains shown)
VH: B1 VH with N31S, A33S, S35T
VL: B1 VL
notes: as for B12

Substitutions are numbered along the chain they refer to. In names and notes the source's numbering stands. Some results are limits rather than exact numbers.

The target of the first experiment is T1, hIL-11Rα. The experiment is described as follows: Kinetic binding analysis by biolayer interferometry (protein G biosensors, Octet RED96e). The conditions noted are these: beyond the ability of the instrument to determine an accurate off-rate (kd). How it is done: Association was carried out in the presence of a 2-fold dilution series of hIL-11Rα and was allowed to proceed for 120 seconds; dissociation was measured for 300 to 1200 seconds.
Consider B1, for which the “binding affinity (in words)” value is recorded as “very high binding affinity”.
As for B2, the “binding affinity (in words)” value was “very high binding affinity”.
On the same count and under the same terms, the result for B3 reads “very high binding affinity”.

The experiment is the same for the next values; noted with them: protein G biosensors; association 120 seconds.
In turn, B1 came in with a ka of 63500 M⁻¹ s⁻¹.
On the same count and under the same terms, then B2, with 800000 M⁻¹ s⁻¹; and B3, with 65100 M⁻¹ s⁻¹.

Staying with this experiment, now noted: protein G biosensors; dissociation 300 to 1200 seconds.
As to B1, the kd was <1e-07 s⁻¹.
In the case of B2, the kd is <1e-07 s⁻¹.
Take B3: the kd is <1e-07 s⁻¹.

In another experiment the test system is IL-11 signaling in STAT3 Reporter (Luciferase)—HEK293 cell line. The experiment in a line: Cell-based STAT3 reporter (luciferase) assay for inhibiting IL-11 signaling. Further details: species or system human. To be noted: compared with TS7 and 8E2. How it is done: Further testing of the lead mAbs was carried out using a cell-based reporter assay. IL-11 is reported to signal through the STAT3 and ERK pathways. Therefore, a STAT3 reporter cell line in which firefly luciferase gene expression is driven by STAT3 response elements located upstream of a minimal TATA promoter was selected to analyze mAb functional activity. In these cells, IL-11 can activate the endogenous STAT3 allowing it to bind to the STAT3 response elements, inducing transcription of the luciferase reporter gene and resulting in readily detectable luciferase expression. Antibodies to IL-11R which block IL-11 signaling should inhibit expression of IL-11 driven luciferase in these cells.
The STAT3 Reporter (Luciferase)—HEK293 cell line (BPS Bioscience, catalog #79800-P) was grown, passaged, and assayed as per manufacturer's protocols. Cells were added at 25,000 cells per well in a 96-well microtiter dish and incubated at 37° C. for 30-45 min. in 5% CO2 humidified air. Anti-IL-11R mAbs were added as a 3-fold dilution series in duplicate columns or rows, and plates were returned to the incubator for an additional 1 h at 37° C. after which 40 ng/mL IL-11 was added to each well to initiate the signal transduction cascade and luciferase production. Plates were incubated for 18-24 hours at 37° C. and luciferase was detected using a One-Step Luciferase Assay System (BPS Bioscience, cat. no. 60690-1) as per manufacturer's instructions.
Turning to B1, the “relative potency at inhibiting IL-11 signaling (in words)” value was “less potent than TS7”.
Still for that read-out and setting: the result for B2 reads “variable”.
Still for that read-out and setting: then B3, with “less potent than TS7”.

The target in another experiment is T2, hIL-1 IR. The experiment is described as follows: Alternate biolayer interferometry assay (AHC biosensors) ranking mAbs 16-32 against mAb5. Type of experiment: binding. To be noted: compared to mAb5. The text has this: (§1) A further series of antibodies were designed in which the residue at Kabat position 31 of the heavy chain was varied (mAbs 16-32). In this case an alternate biolayer interferometry assay was used to initially rank the antibodies compared to mAb5, the closest relative in sequence to mAbs 16-32. MAbs were loaded onto anti-human constant domain (AHC) biosensors (FortdBio) in 10× kinetics buffer consisting of PBS, 0.1% BSA, 0.02% Tween 20 for 120 s to achieve a spectral shift value of 0.8 to 1.2 nm. Association was carried out in the presence of 2-fold dilution series of hIL-1 IR and was allowed to proceed for 120 s. Dilution series started 10 nM. The dissociation in 10× kinetics buffer for 1200 s. Binding kinetic measurements were taken on an Octet RED96e instrument.
Take B4: the qualitative assessment result is recorded as “similar”.
On the same count and under the same terms, then B5, with “similar”; and B6, with “decreased”; and B7, with “similar”.
Same read-out and setting: the result for B8 reads “decreased”.
On the same count and under the same terms, the result for B9 reads “similar”; that for B10, “decreased”; that for B11, “decreased”.

The next experiment has as its target T3, human IL-11Rα. The experiment is described as follows: BLI (Octet RED96e), mAb on anti-human constant domain (AHC) biosensors, hIL-11R in solution.
Conditions: not given
From the text: as §1
(BLI is a label-free optical method that tracks binding on a fibre tip over time.)
B12: the Kd was < 30 pM and the kon was 750000 M⁻¹ s⁻¹.
The corresponding values for B13 are < 30 pM and 720000 M⁻¹ s⁻¹.
For the molecule B14, the Kd is < 30 pM and the kon stood at 690000 M⁻¹ s⁻¹.
For the molecule B15, the Kd was determined as 30 pM, the koff was 1.8e-05 s⁻¹ and the kon is 610000 M⁻¹ s⁻¹.

A word on the Kd: it is a measure of binding affinity in units of concentration. Broadly, the kon is a measure of how fast the partners come together. Read a high kon as faster complex formation. As usually defined, the koff is a measure of how fast the partners let go of each other. Read a high koff as a short-lived complex.
